These results are taken from paper PMC9380774, “Mpe1 senses the binding of pre-mRNA and controls 3′ end processing by CPF” (Molecular Cell, 2022).

B5: Cft2(S), residues 1-720 (domain or fragment, S. cerevisiae, UniProt Q12102 1-720, looked up)
chain: MTYKYNCCDDGSGTTVGSVVRFDNVTLLIDPGWNPSKVSYEQCIKYWEKVIPEIDVIILSQPTIECLGAHSLLYYNFTSHFISRIQVYATLPVINLGRVSTIDSYASAGVIGPYDTNKLDLEDIEISFDHIVPLKYSQLVDLRSRYDGLTLLAYNAGVCPGGSIWCISTYSEKLVYAKRWNHTRDNILNAASILDATGKPLSTLMRPSAIITTLDRFGSSQPFKKRSKIFKDTLKKGLSSDGSVIIPVDMSGKFLDLFTQVHELLFESTKINAHTQVPVLILSYARGRTLTYAKSMLEWLSPSLLKTWENRNNTSPFEIGSRIKIIAPNELSKYPGSKICFVSEVGALINEVIIKVGNSEKTTLILTKPSFECASSLDKILEIVEQDERNWKTFPEDGKSFLCDNYISIDTIKEEPLSKEETEAFKVQLKEKKRDRNKKILLVKRESKKLANGNAIIDDTNGERAMRNQDILVENVNGVPPIDHIMGGDEDDDEEEENDNLLNLLKDNSEKSAAKKNTEVPVDIIIQPSAASKHKMFPFNPAKIKKDDYGTVVDFTMFLPDDSDNVNQNSRKRPLKDGAKTTSPVNEEDNKNEEEDGYNMSDPISKRSKHRASRYSGFSGTGEAENFDNLDYLKIDKTLSKRTISTVNVQLKCSVVILNLQSLVDQRSASIIWPSLKSRKIVLSAPKQIQNEEITAKLIKKNIEVVNMPLNKIVEFSTTI
notes: Cft2, S. cerevisiae, residues 1-720, lacks the disordered C-terminal region; also called Cft2(short); truncated version of Cft2; source: E. coli BL21 Star (DE3), purified (Ni-NTA, 3C cleavage, MonoQ, Superdex 200)

The target in assay [1] is B5. The experiment in a line: cross-linking; polymerase module-Cft2(S)-Mpe1-RNA complex (0.5 mg/ml) with 2 mM sulfo-SDA for 2 h on ice, UV 365 nm for 15 min; 20 mM HEPES, 50 mM NaCl, 0.5 mM TCEP, pH 8.0; mass spectrometry, 1 % FDR on link level. Conditions: both partners purified.
The target of assay [2] is T1, S. cerevisiae polymerase module with an SII tag on Pfs2 (S. cerevisiae, UniProt Q06632 1-1357; P29468 1-568; P42841 1-465; P45976 1-327; Q06102 2-208).
T1 construct: Cft1, S. cerevisiae; Pap1, S. cerevisiae; Pfs2, S. cerevisiae; Fip1, S. cerevisiae; Yth1, S. cerevisiae; That Construct B is the plasmid of this co-infection is surmised from the SII tag on Pfs2; also called Construct B (Cft1-Pap1-Pfs2-SII-Fip1-Yth1); source: Sf9, co-infected with a virus for untagged Cft2 and Ysh1; in lysate, and purified with Cft2 (Strep-Tactin, MonoQ); copies: + + + +
T1 sequence (P29468 whole entry, chain 2 of 2): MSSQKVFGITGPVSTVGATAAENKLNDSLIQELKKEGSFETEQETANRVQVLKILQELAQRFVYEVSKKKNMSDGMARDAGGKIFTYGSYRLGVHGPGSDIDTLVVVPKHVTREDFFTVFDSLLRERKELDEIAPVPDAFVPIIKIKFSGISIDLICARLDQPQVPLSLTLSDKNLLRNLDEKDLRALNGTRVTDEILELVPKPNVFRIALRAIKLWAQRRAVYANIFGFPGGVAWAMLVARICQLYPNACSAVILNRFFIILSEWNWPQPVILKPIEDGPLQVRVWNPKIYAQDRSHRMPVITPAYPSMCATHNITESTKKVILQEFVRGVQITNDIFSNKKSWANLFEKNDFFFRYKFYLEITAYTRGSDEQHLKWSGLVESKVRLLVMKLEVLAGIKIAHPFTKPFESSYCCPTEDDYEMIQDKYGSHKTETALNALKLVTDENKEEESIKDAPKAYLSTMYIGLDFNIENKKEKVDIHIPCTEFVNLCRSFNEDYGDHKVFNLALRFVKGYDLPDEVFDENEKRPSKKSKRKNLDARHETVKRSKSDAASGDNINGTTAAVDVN
T1 sequence (P45976 whole entry, chain 4 of 2): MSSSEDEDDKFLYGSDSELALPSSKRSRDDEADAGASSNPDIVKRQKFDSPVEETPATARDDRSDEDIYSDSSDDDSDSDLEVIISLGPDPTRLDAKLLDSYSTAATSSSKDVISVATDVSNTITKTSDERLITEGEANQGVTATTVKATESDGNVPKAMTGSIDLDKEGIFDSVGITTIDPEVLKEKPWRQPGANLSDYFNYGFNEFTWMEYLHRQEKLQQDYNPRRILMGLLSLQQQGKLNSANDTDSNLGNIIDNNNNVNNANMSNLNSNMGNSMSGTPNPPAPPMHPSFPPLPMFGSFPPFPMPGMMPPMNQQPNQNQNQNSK
In words: pull-down; Sf9 cells co-infected with viruses for the polymerase module (SII on Pfs2) and for untagged Cft2 and Ysh1; Strep-Tactin in Buffer A, then MonoQ. Conditions: partners not purified.

The target in assay [3] is T1, S. cerevisiae polymerase module with an …. In words: SEC; analytical, Superose 6 Increase 3.2/300, SEC 50 buffer (20 mM HEPES pH 8, 50 mM NaCl, 0.5 mM TCEP); 5 μM polymerase module or polymerase module-Cft2 complex, 15 μM Mpe1 or variant, 10 μM Cft2(S) or 720 μM yPIM peptide; with or without 10 μM precleaved CYC1 RNA. The note with it: both partners purified.
Assay [4] concerns the target B5. The experiment in a line: cryo-EM structure; sample of polymerase module, Mpe1, Cft2(S) and precleaved CYC1 RNA; only the polymerase module and the yPIM of Cft2 are seen in the map. Conditions: both partners purified.
The target of assay [5] is T2, Cft1 (S. cerevisiae, UniProt Q06632 1-1357).
T2 construct: Cft1, S. cerevisiae, subunit of the polymerase module of CPF; E. coli codon-optimized gene (GeneArt); source: Sf9, baculovirus, co-expressed with Mpe1-SII, in lysate; also as subunit of the purified polymerase module (Sf9)
T2 sequence: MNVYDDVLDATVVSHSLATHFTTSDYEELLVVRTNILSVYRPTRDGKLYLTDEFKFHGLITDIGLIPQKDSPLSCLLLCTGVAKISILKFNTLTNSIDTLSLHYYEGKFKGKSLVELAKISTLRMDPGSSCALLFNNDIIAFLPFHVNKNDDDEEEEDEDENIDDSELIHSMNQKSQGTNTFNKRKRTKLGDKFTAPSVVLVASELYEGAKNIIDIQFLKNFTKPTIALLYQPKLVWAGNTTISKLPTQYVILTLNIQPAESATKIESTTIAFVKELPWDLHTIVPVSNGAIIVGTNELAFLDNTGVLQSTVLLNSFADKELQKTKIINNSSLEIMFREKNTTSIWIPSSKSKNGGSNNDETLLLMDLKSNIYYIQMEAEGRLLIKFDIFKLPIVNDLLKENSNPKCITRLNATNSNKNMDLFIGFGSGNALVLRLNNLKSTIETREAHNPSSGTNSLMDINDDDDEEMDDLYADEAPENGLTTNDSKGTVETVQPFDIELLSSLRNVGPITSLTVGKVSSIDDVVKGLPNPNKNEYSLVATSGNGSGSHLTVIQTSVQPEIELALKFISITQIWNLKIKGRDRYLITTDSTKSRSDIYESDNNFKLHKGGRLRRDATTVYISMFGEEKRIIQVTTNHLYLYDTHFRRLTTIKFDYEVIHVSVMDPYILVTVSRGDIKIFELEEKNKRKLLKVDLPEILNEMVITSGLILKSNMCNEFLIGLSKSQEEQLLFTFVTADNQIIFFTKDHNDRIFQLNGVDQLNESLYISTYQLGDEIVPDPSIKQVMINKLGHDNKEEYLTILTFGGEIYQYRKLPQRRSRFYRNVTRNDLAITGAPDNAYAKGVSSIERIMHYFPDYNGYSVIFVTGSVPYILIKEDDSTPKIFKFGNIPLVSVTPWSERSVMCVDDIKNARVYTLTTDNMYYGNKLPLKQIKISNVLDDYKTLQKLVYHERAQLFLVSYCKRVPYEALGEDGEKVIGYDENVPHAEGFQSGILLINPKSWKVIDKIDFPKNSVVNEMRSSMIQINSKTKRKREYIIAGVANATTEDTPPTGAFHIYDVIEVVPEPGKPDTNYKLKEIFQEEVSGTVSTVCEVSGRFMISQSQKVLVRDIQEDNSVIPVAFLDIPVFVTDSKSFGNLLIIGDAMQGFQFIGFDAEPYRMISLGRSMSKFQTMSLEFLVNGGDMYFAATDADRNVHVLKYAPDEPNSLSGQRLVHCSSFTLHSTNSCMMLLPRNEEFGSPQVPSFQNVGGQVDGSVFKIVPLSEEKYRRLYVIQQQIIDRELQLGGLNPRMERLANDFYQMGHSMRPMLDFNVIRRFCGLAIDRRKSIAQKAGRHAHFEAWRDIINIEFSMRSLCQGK
The description is as above. The note with it: both partners purified.

B1: Yth1 (natural protein, S. cerevisiae)
chain: MSLIHPDTAKYPFKFEPFLRQEYSFSLDPDRPICEFYNSREGPKSCPRGPLCPKKHVLPIFQNKIVCRHWLRGLCKKNDQCEYLHEYNLRKMPECVFFSKNGYCTQSPDCQYLHIDPASKIPKCENYEMGFCPLGSSCPRRHIKKVFCQRYMTGFCPLGKDECDMEHPQFIIPDEGSKLRIKRDDEINTRKMDEEKERRLNAIINGEV
notes: Yth1, S. cerevisiae, subunit of the polymerase module of CPF; E. coli codon-optimized gene (GeneArt); source: Sf9, baculovirus, co-expressed with Mpe1-SII, in lysate; also as subunit of the purified polymerase module (Sf9)
In the case of B1, the binding result in assay [1] was “binds”.

B2: Cft2 (untagged, co-expressed with the polymerase module) (natural protein, S. cerevisiae, UniProt Q12102 1-859, looked up)
chain: MTYKYNCCDDGSGTTVGSVVRFDNVTLLIDPGWNPSKVSYEQCIKYWEKVIPEIDVIILSQPTIECLGAHSLLYYNFTSHFISRIQVYATLPVINLGRVSTIDSYASAGVIGPYDTNKLDLEDIEISFDHIVPLKYSQLVDLRSRYDGLTLLAYNAGVCPGGSIWCISTYSEKLVYAKRWNHTRDNILNAASILDATGKPLSTLMRPSAIITTLDRFGSSQPFKKRSKIFKDTLKKGLSSDGSVIIPVDMSGKFLDLFTQVHELLFESTKINAHTQVPVLILSYARGRTLTYAKSMLEWLSPSLLKTWENRNNTSPFEIGSRIKIIAPNELSKYPGSKICFVSEVGALINEVIIKVGNSEKTTLILTKPSFECASSLDKILEIVEQDERNWKTFPEDGKSFLCDNYISIDTIKEEPLSKEETEAFKVQLKEKKRDRNKKILLVKRESKKLANGNAIIDDTNGERAMRNQDILVENVNGVPPIDHIMGGDEDDDEEEENDNLLNLLKDNSEKSAAKKNTEVPVDIIIQPSAASKHKMFPFNPAKIKKDDYGTVVDFTMFLPDDSDNVNQNSRKRPLKDGAKTTSPVNEEDNKNEEEDGYNMSDPISKRSKHRASRYSGFSGTGEAENFDNLDYLKIDKTLSKRTISTVNVQLKCSVVILNLQSLVDQRSASIIWPSLKSRKIVLSAPKQIQNEEITAKLIKKNIEVVNMPLNKIVEFSTTIKTLDISIDSNLDNLLKWQRISDSYTVATVVGRLVKESLPQVNNHQKTASRSKLVLKPLHGSSRSHKTGALSIGDVRLAQLKKLLTEKNYIAEFKGEGTLVINEKVAVRKINDAETIIDGTPSELFDTVKKLVTDMLAKI
notes: Cft2, S. cerevisiae, pseudo-nuclease subunit of the nuclease module of CPF; source: Sf9, co-infected with viruses for the polymerase module (Pfs2-SII) and Ysh1-Cft2; in lysate, and co-purified with the polymerase module (Strep-Tactin, MonoQ)
For the molecule B2, the binding result in assay [2] was “binds”.

B3: StrepII-tagged Mpe1 (Mpe1-SII) (natural protein, S. cerevisiae)
chain: MSSTIFYRFKSQRNTSRILFDGTGLTVFDLKREIIQENKLGDGTDFQLKIYNPDTEEEYDDDAFVIPRSTSVIVKRSPAIKSFSVHSRLKGNVGAAALGNATRYVTGRPRVLQKRQHTATTTANVSGTTEEERIASMFATQENQWEQTQEEMSAATPVFFKSQTNKNSAQENEGPPPPGYMCYRCGGRDHWIKNCPTNSDPNFEGKRIRRTTGIPKKFLKSIEIDPETMTPEEMAQRKIMITDEGKFVVQVEDKQSWEDYQRKRENRQIDGDETIWRKGHFKDLPDDLKCPLTGGLLRQPVKTSKCCNIDFSKEALENALVESDFVCPNCETRDILLDSLVPDQDKEKEVETFLKKQEELHGSSKDGNQPETKKMKLMDPTGTAGLNNNTSLPTSVNNGGTPVPPVPLPFGIPPFPMFPMPFMPPTATITNPHQADASPKK
notes: Mpe1, S. cerevisiae, subunit of the nuclease module of CPF; no cleavage is told; also called WT Mpe1; Mpe1-3C-SII; source: Sf9, baculovirus; in lysate, and purified (Strep-Tactin, MonoQ)
On to B3, for which, in assay [3], the binding result was “binds”.

B4: Pfs2 (natural protein, S. cerevisiae)
chain: MDGHNQNQYQNQNQIQQSQQPPLKKYVTQRRSVDVSSPYINLYYNRRHGLPNLVVEPETSYTIDIMPPNAYRGRDRVINLPSKFTHLSSNKVKHVIPAIQWTPEGRRLVVATYSGEFSLWNASSFTFETLMQAHDSAVTTMKYSHDSDWMISGDADGMIKIWQPNFSMVKEIDAAHTESIRDMAFSSNDSKFVTCSDDNILKIWNFSNGKQERVLSGHHWDVKSCDWHPEMGLIASASKDNLVKLWDPRSGNCISSILKFKHTVLKTRFQPTKGNLLMAISKDKSCRVFDIRYSMKELMCVRDETDYMTLEWHPINESMFTLACYDGSLKHFDLLQNLNEPILTIPYAHDKCITSLSYNPVGHIFATAAKDRTIRFWTRARPIDPNAYDDPTYNNKKINGWFFGINNDINAVREKSEFGAAPPPPATLEPHALPNMNGFINKKPRQEIPGIDSNIKSSTLPGLSI
notes: Pfs2, S. cerevisiae, subunit of the polymerase module of CPF; E. coli codon-optimized gene (GeneArt); source: Sf9, baculovirus, co-expressed with Mpe1-SII, in lysate; also as subunit of the purified polymerase module (Sf9)
For the molecule B4, in assay [4], the binding result is on record as “binds”.
Consider B5, for which, in assay [5], the binding result is on record as “binds”.
